{
  "source": "patent US7799901B2",
  "about": "“Modulators of the function of FAS receptors and other proteins” (Yeda Research and Development Co. Ltd., priority 1995, dated 2010)",
  "key": {"[1]": {"target": "T1, p55 TNF receptor (Homo sapiens, UniProt P19438)", "T1 construct": "human p55 TNF receptor (p55-IC residues 206-426); expressed in transfected cells; host or cells: SFY526 yeast", "T1 sequence (P19438 235-455)": "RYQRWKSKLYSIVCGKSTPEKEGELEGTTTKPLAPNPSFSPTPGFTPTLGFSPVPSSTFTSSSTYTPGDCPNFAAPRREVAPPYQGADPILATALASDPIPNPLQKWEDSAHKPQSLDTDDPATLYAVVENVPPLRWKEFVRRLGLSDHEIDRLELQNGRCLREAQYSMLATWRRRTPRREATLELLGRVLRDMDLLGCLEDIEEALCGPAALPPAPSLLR", "test": "Two-hybrid test of MORT-1 binding (FIG. 1), p55 TNF receptor", "settings": "p55-IC residues 206-426, FIG. 1", "excerpt": "(§1) To isolate proteins interacting with the intracellular domain of the FAS-R, the yeast two-hybrid system was used (Fields and Song, 1989). […] In this system, the genes for the candidate interacting proteins are cloned into separate expression vectors. In one expression vector, the sequence of the one candidate protein is cloned in phase with the sequence of the GAL4 DNA-binding domain to generate a hybrid protein with the GAL4 DNA-binding-domain, and in the other vector, the sequence of the second candidate protein is cloned in phase with the sequence of the GAL4 activation domain to generate a hybrid protein with the GAL4-activation domain. The two hybrid vectors are then co-transformed into a yeast host strain having a lacZ or HIS3 reporter gene under the control of upstream GAL4 binding sites. Only those transformed host cells (cotransformants) in which the two hybrid proteins are expressed and are capable of interacting with each other, will be capable of expressing the reporter gene. In the case of the lacZ reporter gene, host cells expressing this gene will become blue in color when X-gal is added to the cultures. […]\n(§2) In FIG. 1, there is depicted the interaction of the proteins encoded by the Gal4 DNA binding domain and activation-domain constructs (pGBT9 and pGAD-GH) within transfected SFY526 yeasts as assessed by β-galactosidase expression filter assay. […]"}, "[2]": {"target": "T2, FAS-IC with replacement mutations at position 225 (Ile) (Mus musculus, UniProt P25446, I246A)", "T2 construct": "four constructs of the mouse Fas-IC including two full-length constructs; expressed in transfected cells; host or cells: SFY526 yeast", "T2 sequence (P25446 187-327 I246A)": "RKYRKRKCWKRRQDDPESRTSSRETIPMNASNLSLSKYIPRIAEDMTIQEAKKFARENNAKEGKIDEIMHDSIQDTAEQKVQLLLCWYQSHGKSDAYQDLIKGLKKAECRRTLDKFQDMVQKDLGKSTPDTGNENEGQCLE", "test": "Two-hybrid test of MORT-1 binding (FIG. 1), FAS-IC mutated at position 225", "settings": "lpr^eg mutation site", "excerpt": "as §1, §2"}, "[3]": {"system": "HeLa cells", "test": "Cytotoxicity triggered by induced expression of MORT-1 in HeLa cells", "format": "cell-based, human", "settings": "tetracycline-controlled transient expression; neutral red uptake or secreted placental alkaline phosphatase", "procedure": "MORT-1, Fas-IC, p55-IC and luciferase cDNAs were inserted into a tetracycline-controlled expression vector and transfected to HtTA-1 cells (a HeLa cell line) (Gossen and Bujard, 1992) together with the secreted placental alkaline phosphatase cDNA, placed under control of SV40 promoter (the pSBC-2 vector, Dirks et al, 1993). Cell death was assessed 40 hours after transfection, either by the neutral-red uptake assay (Wallach, 1984) or, for assessing specifically the death in those cells that express the transfected cDNAs, by determining the amounts of placental alkaline phosphatase (Berger et al, 1988) secreted to the growth medium at the last 5 hours of incubation.\nHigh expression of p55-IC results in triggering of a cytocidal effect (Boldin et al, 1995). The expression of Fas-IC in HeLa cells also has such an effect, though to a lower extent, which could be detected only with the use of a sensitive assay. The ligand independent triggering of cytocidal effects in cells transfected with MORT-1, as well as human p55-IC and FAS-IC, was thus analyzed. The effect of transient expression of MORT-1, human Fas-IC, human p55-IC, or luciferase that served as a control, on the viability of HeLa cells was assessed using a tetracycline-controlled expression vector. […]"}, "[4]": {"target": "T3, mouse Fas-IC (Mus musculus, UniProt P25446)", "T3 construct": "four constructs of the mouse Fas-IC; expressed in transfected cells; host or cells: SFY526 yeast", "T3 sequence (P25446 187-327 limits assumed)": "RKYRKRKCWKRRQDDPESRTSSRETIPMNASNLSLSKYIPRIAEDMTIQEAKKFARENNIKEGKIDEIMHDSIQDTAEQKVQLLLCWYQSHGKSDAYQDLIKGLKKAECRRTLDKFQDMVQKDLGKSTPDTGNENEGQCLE", "test": "Two-hybrid test of MORT-1 binding (FIG. 1), mouse Fas-IC", "settings": "transfected SFY526 yeasts", "excerpt": "as §1, §2"}, "[5]": {"target": "T4, CD40 (Homo sapiens, UniProt P25942)", "T4 construct": "human CD40 (CD40-IC, residues 216-277); expressed in transfected cells; host or cells: SFY526 yeast", "T4 sequence (P25942 216-277)": "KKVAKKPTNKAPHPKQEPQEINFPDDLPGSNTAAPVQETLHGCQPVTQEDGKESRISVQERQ", "test": "Two-hybrid test of MORT-1 binding (FIG. 1), CD40", "settings": "CD40-IC residues 216-277, FIG. 1", "excerpt": "as §1, §2"}},
  "data": [
    {"molecule": "MORT-1: Mediator of Receptor-induced Toxicity; protein binding the intracellular domain of FAS-R, SEQ ID NO:2 (protein) VNQAPECRFGGGILGPLGKRRDLARASEPRTEGARRAGPQPRPLADPAMDPFLVLLHSVSSSLSSSELTELKFLCLGRVVKRKLERVQSGLDLFSMLLEQNDLEPGHTELLRELLASLRRHDLLRRVDDFEAGAAAGAAPGEEDLCAAFNVICDNVGKDWRRLARQLKVSDTKIDSIEDRYPRNLTERVRESLRIWKNTEKENATVAHLVGALRSCQMNLVADLVQEVQQARDLQNRSGAMSPMSWNSDASTSEAS", "values": [
      {"measurement": "binding to p55 TNF receptor in two-hybrid test", "setting": "[1]", "value": "not"},
      {"measurement": "binding to FAS-IC with replacement mutation at position 225", "setting": "[2]", "value": "prevents binding"},
      {"measurement": "cell death on expression in HeLa cells", "setting": "[3]", "value": "significant cell death"},
      {"measurement": "binding to mouse Fas-IC in two-hybrid test", "setting": "[4]", "value": "binds"},
      {"measurement": "binding to CD40 in two-hybrid test", "setting": "[5]", "value": "not"}
    ]}
  ]
}
